Assay [1] has as its target CPXV ortholog of D8 (cowpox virus). In words: cell-based or functional assay.
Assay [2] deals with MPXV ortholog of D8 (monkeypox virus). The assay can be described thus: lysate ELISA. A general note: An ELISA detects its analyte on a solid surface through an enzyme-linked reagent.
Assay [3] deals with CPXV ortholog of D8 (cowpox virus). The assay can be described thus: lysate ELISA.
For assay [4], the target named is CPXV ortholog of L1 (cowpox virus). The assay can be described thus: cell-based or functional assay.
Assay [5] has as its target MPXV ortholog of L1 (monkeypox virus). The assay can be described thus: cell-based or functional assay.
The target of assay [6] is CPXV ortholog of L1 (cowpox virus). In words: lysate ELISA.
Assay [7] addresses VARV ortholog of L1 (variola virus). In words: purified antigen ELISA.

For orientation: EC50 means the concentration giving half of the maximal effect. The low end stands for an effect from little substance, the high end for a need for much substance.

B1: VACV-8 (antibody, V domains shown)
VH: QVQLQQWGAGLLKPSETLSLTCAGYGGSFSGYFWSWIRQPPGKGLEWIGEINHSGSTDYNPSLKSRVTISLDTSKTQFSLKLSSVTAADTAVYYCARVMTGITNYYYYYGMDVWGQGTTVTF
VL: DIQLTQSPSFLSASVGDRVTITCRASQDISSYLAWYQQKPGKAPKLLIYAASTLQSGVPSRFSGSESGTEFTLTISSLQPENFATYYCQHLNSYPRGYTFGQGTKVDIK
In assay [1], B1 gave a PRNT Emax, CPXV MV+C' of 58%. The molecule also came in with a PRNT IC50, CPXV MV+C' in assay [1] of 2 µg/mL. Further, the EC50 turned out to be 0.06 µg/mL in assay [2] and 0.1 µg/mL in assay [3].

B2: MPXV-61 (antibody, V domains shown)
V domain 1: QVQLVQSGAEVKKPGSSVKVSCKASGETFSRYAFSWVRLAPGQGLEWLGRIIPFIDIPNYAQKFQGRVTITADKSTSTAYMELSSLRSEDTAVYYCASSLPSTYYFGSGNYPWGNWLDPWGQGTLVTVSS
V domain 2: QSVVTQPPSVSAAPGQNVTISCSGSSSNIGNNYVSWYHQLPGTAPKLLIYDNDKRPSGIPDRFSGSKSGTSATLGITGLQTGDEADYYCGTWDSSLSEVVFGGGTQVTVL
Turning to B2, the figures for the EC50 in assay [2] and in assay [3] were 0.004 µg/mL and 0.009 µg/mL, respectively.

B3: VACV-128 (antibody, V domains shown)
VH: EVQLVQSGAEVKKPGATVKISCKVSGYTFTDYYMHWVQQAPGKGLKWMGLLDPLDGETIYSEKFQGKVTITADTSTDTAYMELSSLRSEDTAVYYCARELTGYLNYWGQGTLVTVSS
VL: DIQMTQSPSSLSASVGDRVTITCRASPGICNYLAWYQHKPGKVPKLLIYAASTLQSGVPSRFTGVGSGTNFTLTINNLPPENVATYYCQKYNSAPHTFGQGTKVDIK
Turning to B3, in assay [1], the PRNT Emax, CPXV MV+C' amounted to 71% and the PRNT IC50, CPXV MV+C' was found to be 0.3 µg/mL. In assay [3], the EC50 turned out to be 0.25 µg/mL.

B4: VACV-304 (antibody, V domains shown)
VH: EVQLVESGGGLVQPGGSLRLSCVVSGFTFSNYWMSWVRQAPGKGLEWVANIKQDGSKKYYVDSVTGRFTISRDNAKNSLYLQMNSLRAEDTAVYYCATLNLELAVDAISEALKWGQGTLVTVSS
VL: SYELTQPPSVSVSPGQTARITCSGDALPKQFAYWYQQKPGQAPVVMIYKDSERPSGIPERFSGSSSGTTVTLTISGVQAEDEADYYCQSVDNSGTYEVFGGGTQLTVL
In assay [1], B4 returned a PRNT Emax, CPXV MV+C' of 79% and a PRNT IC50, CPXV MV+C' of 0.1 µg/mL. Besides, the EC50 in assay [2] worked out at 0.1 µg/mL. This molecule also gave an EC50 in assay [3] of 0.05 µg/mL.

B5: VACV-117 (antibody, V domains shown)
VH: QVQLVQSGAEVKKPGASVKVSCKASGYTFTSYDINWVRQATGQGLEWLGWMNPNSGNTKSAQKVKGRVTMTRDTSISTAYMELSSLRSEDTAVYYCARTPFDDIGYYYWGQGTLVTVS
VL: DIVMTQSPLSLSVTPGEPASISCRSSQSLLHSNGYNYLDWYLQKPGQSPQLLIYLGSNRASGVPDRFIGSGSGTDFTLKISIVEAEDVGVYYCMQALQTPGAFGPGTKVDIK
As to B5, the 50% effective concentration (EC50) in assay [2] was over 26 µg/mL; in assay [3], 0.01 µg/mL.

B6: MPXV-27 (antibody, V domains shown)
VH: QVQLQQWGAGLLKPSETLSLTCDVYGGSFSGYYWSWIRQPPGKGLEWIGEINHSGSTTYTPSLRSRVTISVDTSKNQFSLKLSSVTAADTAVYYCARVLSGWLPFPNYYYYMDVWGKGTTVT
VL: DIQMTQSPSSLPASVGDRVTITCRASQDIRNNLGWYQQKPGKAPERLIYGTSNLQSGVPSRFSGSGSGTEFTLTISSLQPEDFATYYCLQHNSYPPTFGRGTKVEIK
The molecule B6 came in with a PRNT Emax, CPXV MV+C' in assay [1] of 75%. Further, the PRNT IC50, CPXV MV+C' in assay [1] was 0.08 µg/mL. For the same molecule, the EC50 in assay [2] and in assay [3] was 0.02 µg/mL in each case.

B7: VACV-66 (antibody, V domains shown)
VH: QLQLQESGPGLVKPSETLSLTCTVSGDSISSNNYYWGWIRQPPGKGLEWIGSIYYSGSTYYNPSLKSRVTISVDTSKNQFSLKLSSVTAADTAVYYCARHRRVLLWFGEFQLWGQGTLVTVSS
VL: QSALTQPPSVSGAPGQRVTISCTGSSSNIGAGYDVHWYQQLPGTAPKLLIYGNINRPSGVPDRFSGSKSGTSASLAITGLQAEDEADYYCQSYDSSLSGALFGGGTQLTVL
For B7, the EC50 in assay [2] is over 0.3 µg/mL.

B8: VACV-159 (antibody, V domains shown)
VH: QLQLQESGPGLVKPSETLSLTCTVSGGSISSSSYYWGWIRQPPGKGLEWIGSIYYRGSTYYNPSLKSRITISVDTSKNQFSLKLRSVTAADTAVYYCARHLRVLLWFGELLEWGQGTTVTVSS
VL: QSALTQPPSVSGAPGQRVTISCTGSSSNIGADYDVHWYQQLPGTAPKLLIYGNSNRPSGVPDRFSGSKSGTSASLAITGLQAEDEADYYCQSHDSSLSGYVFGTGTKVTVL
As for B8, the EC50 in assay [2] is over 14 µg/mL; in assay [3] it was over 28 µg/mL.

B9: MPXV-26 (antibody, V domains shown)
VH: QVQLVQSGGGLIQPGGSLRLSCVVSGFNVATNYMSWVRQAPGKGLEWVSVIYSGGSTYYADSVKGRFTISRDNSKNTVFLQMNSLRPEDTAAYYCAKGGGLGLDYWGQGTLVTVSS
VL: QSALTQPPSASGSPGQSVTITCTGSSSDVGGYNYVSWYQQHPGKAPKVVIYEVNKRPSGVPHRFSGSKSGNTASLTVSGLQAEDEADYYCSSYAGTETVAFGGGTKLTVL
Turning to B9, in assay [4], the PRNT Emax, CPXV MV was determined as 99%; the PRNT Emax, CPXV MV+C' is 93%; the PRNT IC50, CPXV MV was 0.07 µg/mL; the PRNT IC50, CPXV MV+C' was determined as 0.2 µg/mL. In assay [5], this molecule gave a PRNT Emax, MPXV MV of 96%; a PRNT Emax, MPXV MV+C' of 97%; a PRNT IC50, MPXV MV of 3 µg/mL; a PRNT IC50, MPXV MV+C' of 6.2 µg/mL. The EC50 in assay [6] came out at 0.05 µg/mL. The molecule further had an EC50 in assay [7] of 0.02 µg/mL.

B10: VACV-33 (antibody, V domains shown)
VH: QLQLQESGPGLVKPSETLSLTCTVSGGSISSGGYYWGWIRQPPGKGLEWIASIYYSGSTYYNPSLKSRVTISVDTSKTQFSLKLSSVTAADTAVYYCARQSSSTGGFHYWGQGTLVTVSS
VL: QSVLTQPPSVSGAPGQRVTISCTGSSSNIGAGYDVHWYQHLPGTAPKLLIYGNSNRPSGVPDRFSGSKSGTSASLAITGLQAEDEANYYCQSYDSSLSGREVFGGGTQLTVL
In assay [4], B10 returned a PRNT Emax, CPXV MV of 74%; a PRNT Emax, CPXV MV+C' of 75%; a PRNT IC50, CPXV MV of 0.5 µg/mL; a PRNT IC50, CPXV MV+C' of 0.2 µg/mL. Further, in assay [5], the PRNT Emax, MPXV MV worked out at 50% and the PRNT IC50, MPXV MV was 70 µg/mL. In assay [6], this molecule yielded an EC50 of 0.06 µg/mL. The molecule also came in with an EC50 in assay [7] of 0.02 µg/mL.

B11: VACV-136 (antibody, V domains shown)
V domain 1: QVTLKESGPVLVNPTETLTLTCTVSGFSLSNARMRVSWIRQPPGKALEWLAHIFSNDEKSYSTSLKSRLTISKDTSKSQVVLTMTNMDPVDTASYYCARMRGEYNSYYFDSWGQGTLVTVS
V domain 2: SYELTQPPSVSVSPGQTARITCSGDALPNQYAYWYQQKPGQAPVLVIYKDSERPSGIPERFSGSSSGTTVTLTISGVQAEDEADYYCQSADSSGTSVVFGGGTQVTV
As to B11, in assay [1], the PRNT Emax, CPXV MV+C' was found to be 75% and the PRNT IC50, CPXV MV+C' is 0.2 µg/mL. This molecule displayed an EC50 in assay [2] of 0.04 µg/mL. For the same molecule, the EC50 in assay [3] turned out to be 0.05 µg/mL.

B12: MPXV-96 (antibody, V domains shown)
VH: QVQLQQWGAGLLISSETLSLTCGVYGGSFSGYYWTWIRQPPGKGLEWIGEINYVGSTNYNPSLKSRVTMSVDTSKNHFSLSLSSVTAADTAVYYCARGLRGNSVCFDWGPGTLV
VL: ELVMTQSPATLSVSPGERASLSCRASQSVSSNLAWYQQKPGQAPRLLIYGASTRATGLPARFSGSGSGTEFTLTISSLQSEDFAIYYCQQYNNWPRTFGQGTKVDI
Consider B12, for which the EC50 is 0.001 µg/mL in assay [2] and 0.003 µg/mL in assay [3].
